Measurements from patent US20220088195A1, “Prevention or mitigation of T-cell bispecific antibody-related adverse effects” (Hoffmann-La Roche Inc., priority 2020, published 2022).

Test system: MKN45 NLR target cells
Experiment: Reversibility killing assay with two and three stimulations (OFF/ON, ON/OFF/ON), MKN45 NLR + CEA-TCB, Incucyte
Assay type: cell-based, human
Conditions: 1 nM CEA-TCB, no dasatinib
Procedure: FIG. 16. In vitro killing assay set-up and timelines. PBMCs were stimulated on MKN45 NLR (E:T=10:1) target cells with 1 nM CEA-TCB for 96 hours. Activated PBMCs were washed and restimulated on new MKN45 NLR target cells (E:T=10:1) with 1 nM CEA-TCB in the presence of 25 nM dasatinib for 72 hours. Activated PBMCs were washed to remove dasatinib and restimulated on new MKN45 NLR target cells (E:T=10:1) with 1 nM CEA-TCB (“ON/OFF/ON”, see upper row of table), or vice versa (“OFF/ON/OFF”, see lower row of table). Killing was followed by Incucyte®.
FIG. 17. Real time killing of MKN45 NLR target cells by CEA-TCB in the presence of 25 nM dasatinib (0-72 h) upon first stimulation and in the absence of 25 nM dasatinib (96-170 h) upon restimulation, in the assay of FIG. 16 (“OFF/ON”).
FIG. 19. Real time killing of MKN45 NLR target cells by CEA-TCB in the assay of FIG. 16 (“ON/OFF/ON”).
FIG. 21. CEA-TCB mediated target cell killing. (A) PBMCs were stimulated on MKN45 NLR (E:T=10:1) target cells with 1 nM CEA-TCB for 96 hours in the presence and absence of dasatinib. (B) Activated PBMCs were washed to remove dasatinib and restimulated on new MKN45 NLR target cells (E:T=10:1) with 1 nM CEA-TCB. Killing was followed by Incucyte®.
We then verified if dasatinib's effect is reversible upon its removal. Therefore we set-up a killing assay with two and three stimulations in the presence and absence of dasatinib and followed the killing kinetics using an Incucyte® system (FIG. 16). After each stimulation, effector cells were washed and re-stimulated on fresh MKN45 NLR target cells with 1 nM CEA TCB in the presence and absence of dasatinib allowing to mimic OFF/ON switch and ON/OFF/ON switch.
Lastly, we evaluated if the effect of dasatinib was reversible on activated T cells. Consequently, we supplemented the media with 25 nM dasatinib upon the second stimulation with 1 nM CEA-TCB to prevent killing from activated T cells and then removed the dasatinib upon third stimulation with 1 nM CEA-TCB to verify if killing would be restored. […] We concluded that the effect of dasatinib in the prevention of T cell activation and cytotoxicity is reversible.
For T-cell engaging antibodies, cytokine release peaks are higher upon the first treatment than after subsequent treatments. We were curious to see if low doses of dasatinib could prevent cytokine release while minimally affecting TCB-efficacy upon first stimulation. In killing assays as described in FIG. 16, the cytokine levels upon first treatment with 1 nM CEA-TCB in the presence of 6.25 nM and 12.5 nM dasatinib and upon second treatment with 1 nM CEA-TCB in the absence of dasatinib were measured in the supernatants. […] Its removal upon second stimulation may also balance the cytokine release and restore TCB-induced cytotoxicity due to the reversibility properties of dasatinib.

B1: CEA-TCB: T cell bispecific antibody binding CEA and CD3 (SEQ ID NOs 28-47) (antibody, chains of the INN, looked up, V domains shown)
VH: QVQLVQSGAEVKKPGASVKVSCKASGYTFTEFGMNWVRQAPGQGLEWMGWINTKTGEATYVEEFKGRVTFTTDTSTSTAYMELRSLRSDDTAVYYCARWDFAYYVEAMDYWGQGTTVTVSS
VL: DIQMTQSPSSLSASVGDRVTITCKASAAVGTYVAWYQQKPGKAPKLLIYSASYRKRGVPSRFSGSGSGTDFTLTISSLQPEDFATYYCHQYYTYPLFTFGQGTKLEIK
VH2: B1 VH
VL2: QAVVTQEPSLTVSPGGTVTLTCGSSTGAVTTSNYANWVQEKPGQAFRGLIGGTNKRAPGTPARFSGSLLGGKAALTLSGAQPEDEAEYYCALWYSNLWVFGGGTKLTVL
killing of MKN45 cells after first stimulation: triggered the killing
